Experimental data published in the nanobody polyreactivity screen of Harvey et al. (2022).

test: yeast display, Sf9 membrane polyspecificity reagent, FACS + sequencing; frameworks hold sequencing errors
Outline: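 Galactose induction of a Saccharomyces cerevisiae BJ5465 synthetic nanobody display library ran 36–48 hours. The cells were then stained for 1 hour at 4 °C with 10% biotinylated, detergent-solubilized Sf9 membrane reagent, pulled down on streptavidin microbeads and FACS-sorted into low and high (top ~1%) gates on expression and reagent-binding fluorescence. Labels for polyreactivity follow the gate of origin.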

Q: With “QVQLVESGGGLVQAGGSLRLSCAATGITFYTYAMGWYRQAPGKERELVAAITRSGGSTYYADSVKGRFTISRDNAKNTVYLQMNSLKPEDTAVYYCAADGGYIYWEHLYYSGSDYWGQGTQVTVSS” as the sequence, how does the “polyreactivity (PSR sort gate)” value read?
A: low polyreactivity

Q: For “QVQLVESGGGLVQAGGSLRLSCAATGITLYGYFMGWYRQAPGKERELVAAISRSGGSTYYADSVMGRFTISRDNAKNTVYLQMNSLKPEDTAVYYCAKVPRYYYDSEFDYWGQGTQVTVSS”, which “polyreactivity (PSR sort gate)” value is on record?
A: high polyreactivity

Q: For “QVQLVESGGGLVQAGGSLRLSCAATGLTFWVNAMAWYRQAPGKERELVADITRSGGITNYADSVKGRFTISRDNANNTVYLQMNSLKPEDNAVYYCNADQRVDHDDFDYWGKGTQVTVSS”, which “polyreactivity (PSR sort gate)” value is on record?
A: low polyreactivity

Q: With “QVQLVESGGGLVQAGGSLRLSCAATGLTFYLNAMGWYRQAPGKEREFVAAINYSVGSTYYADSVKGRFTISRDNAKNTVYLQMNSLKPEDTAVFYCAADGYLYFKVDNEYWGQGTQVTVSS” as the sequence, how does the “polyreactivity (PSR sort gate)” value read?
A: low polyreactivity

Q: For “QVQLVESGGGLVQAGGSLRLSCAATGRIFYRNAMGWYRQAPGKERELVAAIRGSGGRTYYADSVKGRFTISRDNAKNTVYLQMNSLKPEDTAVYYCAAYGYYVEHPRGLSGPYDDDYWGQGTQVTVSS”, which “polyreactivity (PSR sort gate)” value is on record?
A: low polyreactivity

Q: With “QVQLVESGGGLVQAGGSLRLSCAATGRTFRLYAMGWYRQAPGKERELVAAITRGGRTNYADSVKGRFTISRDNAKNTVYLQMNSLKPEDTAVYYCAARYRLPIPGTQYEYWGQGTQVTVSS” as the sequence, how does the “polyreactivity (PSR sort gate)” value read?
A: low polyreactivity

Q: Which “polyreactivity (PSR sort gate)” value does the source give for “QVQLVESGGGLVQAGGSLRLSCAATGRTFSSYAMGWYRQAPGKEREFLARISSSRGRTSYADSVKGRFTISRDNAKNTVYVQMNSLKPEDTAVYYCAARPPYRVGIVPLGRREYYWGRGTQVTVSS” here?
A: high polyreactivity

Q: For “QVQLVESGGGLVQAGGSLRLSCAATGRTLPPNAMGSYRQAPGKERELVAGITWSGGSTYYADSVKGRFTISRDNAKNTVYLQMNSLKPEDTAVYYCAASRSFPGYGLYYYWGQGTQVTVSS”, which “polyreactivity (PSR sort gate)” value is on record?
A: low polyreactivity

Q: For “QVQLVESGGGLVQAGGSLRLSCAATGSIDSNALGWYRQAPGKERELVADITSGTPTYADSVKGRFTITRDNAKNTVYLQMNSLKPEDTAVYYCAADIPPWGGDYWGQGTQVTVSS”, which “polyreactivity (PSR sort gate)” value is on record?
A: low polyreactivity

Q: For “QVQLVESGGGLVQAGGSLRLSCAATGSIFRGYAMGWYRQAPGKERELVAAITSGGSTNYADSVKGRFTISRDNAKNTVYLQMNSLKPEDTAVYYCAKDLALVAPLSDYWGQGTQVTVSW”, which “polyreactivity (PSR sort gate)” value is on record?
A: low polyreactivity

Q: Which “polyreactivity (PSR sort gate)” value does the source give for “QVQLVESGGGLVQAGGSLRLSCAATGSIFTAYDMGWYRQAPGKERELVAAINVSAGTTYYADSVKGRFTISRDNAKNTVYLQMNSLKPEDTAVYYCATDRSPTPYTRENIYDYWGQGTQVTVSS” here?
A: low polyreactivity

Q: Which “polyreactivity (PSR sort gate)” value does the source give for “QVQLVESGGGLVQAGGSLRLSCAATGSIFVGYVMGWYRQAAGKERELVAAISRSGGRTYYADSVKGRFTISRDNAKNTVYLQMNSLKPEDTAVYYCAVRHRFYTAGYDYWGQGTQVTVSS” here?
A: low polyreactivity

Q: Which “polyreactivity (PSR sort gate)” value does the source give for “QVQLVESGGGLVQAGGSLRLSCAATGSILVYYAMGWSRQAPGKERELVAAISSGGSTNYADSVKGRFTISRDNAKNTVYLQMNSLKPEDTAVYYCDKESGWVGAIHYDYWGQGTQVTVSS” here?
A: low polyreactivity

Q: With “QVQLVESGGGLVQAGGSLRLSCAATGSTFAKYAMCSYRQAPGKERELVASISGSGGSTYYADSVKGRFTISRDNAKNTFYLQMNSLIPEDTAVYYSAARRYVWYYWGQGTQVTVSW” as the sequence, how does the “polyreactivity (PSR sort gate)” value read?
A: high polyreactivity

Q: With “QVQLVESGGGLVQAGGSLRLSCAATGSTFDRYGMGWYRQAPGKERELVAAINSGDITNYADSVKGRFTISRDNAKNTVYLQMNSLKPEDTAVYYCNAGIRYFVVGRSSYDYWGQGTQVTVSS” as the sequence, how does the “polyreactivity (PSR sort gate)” value read?
A: low polyreactivity

Q: For “QVQLVESGGGLVQAGGSLRLSCAATGSTFIDNARGWYRQAPGKERELVAAINSSGGNTYYADSVKGRFTISRDNAKNTVYLQMNSLKPEDTAVYYCNAEFSVLYFYDYEYWGQGTQVTVSS”, which “polyreactivity (PSR sort gate)” value is on record?
A: low polyreactivity

Q: With “QVQLVESGGGLVQAGGSLRLSCAATGSTFIFYAMGWYRQAPGKERELVAAISWSGGSTYYADSVKGRFTISRDNAKNTVYLQMNSLKPEDTAVYYCNARWSSWYIHSHYYYWGQGTQVTVSS” as the sequence, how does the “polyreactivity (PSR sort gate)” value read?
A: high polyreactivity

Q: For “QVQLVESGGGLVQAGGSLRLSCAATGSTFRKYAMGWYRQAPGKEREFVAAISSAGGRTYYADSVKGRFTISRDNAKNTVYLQMNSLKPEDTAVYYCNAYFRYSYDYWGQGTQVTVSS”, which “polyreactivity (PSR sort gate)” value is on record?
A: high polyreactivity

Q: For “QVQLVESGGGLVQAGGSLRLSCAATGSTFYVNDMGWYRQAPGKERELVAAIDWTGGTTYYADSEKGRFTISRDNAKNTVYLQMNSLKPEDSAVYYCAVDDSTVDYDYWGQGTQVTVSS”, which “polyreactivity (PSR sort gate)” value is on record?
A: low polyreactivity

Q: With “QVQLVESGGGLVQAGGSLRLSCAATGSTIPYYAMGWYRQAPGKERELVARITSGDRTYYADSVKGRFTISRDNAKNTVYLQMNSLKPEDTADYYCNAQVHYYSWYGYWGQGTQVTVSS” as the sequence, how does the “polyreactivity (PSR sort gate)” value read?
A: high polyreactivity

Q: Which “polyreactivity (PSR sort gate)” value does the source give for “QVQLVESGGGLVQAGGSLRLSCAATGSTRYYAMGWYRHAPGKERELVASIASIGGSTSYADSVKGRFTISRDNAKNTVYLQMNSLKPEDTAVYYCATRSLVYSARAAGLIQFDHWGQGTQVTVSS” here?
A: low polyreactivity

Q: Which “polyreactivity (PSR sort gate)” value does the source give for “QVQLVESGGGLVQAGGSLRLSCAATRYTFSHYAMGCYRQAPGKERELVAAMSGSGGNTYYADSVKGRFTISRDHAKNTVYLQMNSLKPEDTAVYYCNADNEYRLGYWDDSWVQGTQVTVSS” here?
A: low polyreactivity

Q: With “QVQLVESGGGLVQAGGSLRLSCAAYEFIFARNGMGWSRQAPGKERELVAAITNSGSTYADSVKGRFTISRDNAKNTVYLQMNSLKPEDTAVYYCNKDPGNVSSYNGGGYWGQGTQVTVSS” as the sequence, how does the “polyreactivity (PSR sort gate)” value read?
A: low polyreactivity

Q: With “QVQLVESGGGLVQAGGSLRLSCAAYGFIFLENDMGWYRQAPGKERELVASINSGSDTNYADSVKGRFTISRDNAKNTVYLQMNSLKPEDTAVYYCNASYNGVPARYDYWGQGTQVTVSS” as the sequence, how does the “polyreactivity (PSR sort gate)” value read?
A: low polyreactivity

Q: With “QVQLVESGGGLVQAGGSLRLSCAAYGFTFSWYAMGWYRQAPGKERELVAAISSSGGSTYYADSVKGRFTISRDNAKNTVYLQMNSLKPEDTAVYYCNAYRSASVVVGYDYWGQGTQVTVSS” as the sequence, how does the “polyreactivity (PSR sort gate)” value read?
A: high polyreactivity

Q: Which “polyreactivity (PSR sort gate)” value does the source give for “QVQLVESGGGLVQAGGSLRLSCAAYGGIFPAYAMGWYRQAPGKERELVAAISSSGRTYYADSVKGRFTISRDNAKNTVYLQMNSVKPEDTAVYYCAAYGGYRGWVFGSYGSWGQGTQVTVSS” here?
A: high polyreactivity

Q: With “QVQLVESGGGLVQAGGSLRLSCAAYGIIFYLYAMGWYRTAPGKERELVAAITWNGGRTYYADSVKGRFTISRDNAKNTVYLQMNSLKPEDTAVYYCNTDRRWRGTYTTRYDYWGQGTQVTVSS” as the sequence, how does the “polyreactivity (PSR sort gate)” value read?
A: low polyreactivity

Q: With “QVQLVESGGGLVQAGGSLRLSCAAYGITFAYYVMGWYRQAPGKERELVAAISRSGSTYYADSVKGRFTISRDNAKITVYLQMNCLKPEDTAVYYCAVLYIRWYTYEYWGQGTQVTVSS” as the sequence, how does the “polyreactivity (PSR sort gate)” value read?
A: high polyreactivity

Q: With “QVQLVESGGGLVQAGGSLRLSCAAYGITFEVNAMGWYRQAPGKERELVAAINSSVASTYYADSVKGRFTISRDNAKNTVDLQMNSLKPEDTAVYYCAAQGKGGTEYGYGYWGQGTQVTVSS” as the sequence, how does the “polyreactivity (PSR sort gate)” value read?
A: low polyreactivity

Q: For “QVQLVESGGGLVQAGGSLRLSCAAYGLTFPWNAMGWYRQSPGKERELVAAITSRGGNTYYADSVKGRFTISRDNAKNTVYLQMNSLKPEDTAVYYCAARQYWSYRRYDYWGQGTQVTVSS”, which “polyreactivity (PSR sort gate)” value is on record?
A: high polyreactivity

Q: With “QVQLVESGGGLVQAGGSLRLSCAAYGNTFEGYAKGWYRQAPGKERELVAAISGSSGSTYYADSVKGRFTISRDNAKNTVYLQMNSLKPEDTAVYYCAAYSYYPPYDYWGQGTQVTVSS” as the sequence, how does the “polyreactivity (PSR sort gate)” value read?
A: high polyreactivity

Q: With “QVQLVESGGGLVQAGGSLRLSCAAYGNTFSQYAKGWYRQAPGKERELVATISKSSGSTSYTDSVKGRFTISRDNAKNTVYLQLNSLKPEDSAVYYCNADSSDVYHHLGVLFFSTWYDYWGQGTLVTVSS” as the sequence, how does the “polyreactivity (PSR sort gate)” value read?
A: low polyreactivity

Q: For “QVQLVESGGGLVQAGGSLRLSCAAYGRIFAPNAMGWYRQAPGKERELVATISWSGGSTYYADSVNGRFTISRDNSKNYVYLQMNSLKPEDTAVYYCAGSNYQYGVISYDYWGKGTQVTVSS”, which “polyreactivity (PSR sort gate)” value is on record?
A: low polyreactivity

Q: With “QVQLVESGGGLVQAGGSLRLSCAAYGRIFFRYAMGWYRQAPGKERELVATISSSGSTYYADSVKGRFTISRDNAKNTVYLQMNSLIPEDTAVYYCAATWTTRGLRHFVYNDYDYWGQGTQVTVSS” as the sequence, how does the “polyreactivity (PSR sort gate)” value read?
A: high polyreactivity

Q: With “QVQLVESGGGLVQAGGSLRLSCAAYGRIFWLYAMGWYRQAPGKERELVAVISWSGGTTYYADSVKGRFTISRDNAKNTVYLQMNSLKPEVTAVYYCAKQGWTSYDYWGQGTQVTVSS” as the sequence, how does the “polyreactivity (PSR sort gate)” value read?
A: low polyreactivity

Q: Which “polyreactivity (PSR sort gate)” value does the source give for “QVQLVESGGGLVQAGGSLRLSCAAYGRTFHAYAKGWYRQAPGKGRELVAAITRTGTTHYADSVKGRFTISRDNAKNTVYLQMNSLKPEDTAVYYCAAQHVRVDAQFVLQGYDYWGQGTQVTVSS” here?
A: low polyreactivity

Q: With “QVQLVESGGGLVQAGGSLRLSCAAYGRTFLYNAMGWYRQAPGKERELVAAISSRGARTYYADSVKGRFTISRDNAKNTVYLQMNSLKPEDTAVYYCATDSYRYDGIQYLYEYYYWGQGTQVTVSS” as the sequence, how does the “polyreactivity (PSR sort gate)” value read?
A: high polyreactivity

Q: For “QVQLVESGGGLVQAGGSLRLSCAAYGRTFRLNAMGWYRQAPGKERELVAGIRVRAGTTYYADSVKGRFTISRDNAKNTVYLQMNSLKPEDTAVYYCAAESYSRSRKYDYWGQGTQVTVSS”, which “polyreactivity (PSR sort gate)” value is on record?
A: high polyreactivity

Q: For “QVQLVESGGGLVQAGGSLRLSCAAYGRTFYGYAMGWYRQAPGKEREFFAAITWRGGSTYYADSVKGRFSISRDNAKNNVFLQMNSLKPEDTAVYYCAADYRVYTRYGLRKFDYWGQCTQVTVSS”, which “polyreactivity (PSR sort gate)” value is on record?
A: high polyreactivity

Q: Which “polyreactivity (PSR sort gate)” value does the source give for “QVQLVESGGGLVQAGGSLRLSCAAYGRTIRRNAMGWYRQAPGKERELVAGISGSGTITYADSVKGRFTIARDNAKNTVYLQMNSLKPEDTAVYYCAARRKSFYTFYYWGQGTQVTVSS” here?
A: high polyreactivity
